Biological target: SF3B5 (human (endogenous in K562), UniProt Q9BWJ5 1-86)
Experiment: cryo-EM structure

B1: TAF6L (natural protein)
chain: MSEREERRFVEIPRESVRLMAESTGLELSDEVAALLAEDVCYRLREATQNSSQFMKHTKRRKLTVEDFNRALRWSSVEAVCGYGSQEALPMRPAREGELYFPEDREVNLVELALATNIPKGCAETAVRVHVSYLDGKGNLAPQGSVPSAVSSLTDDLLKYYHQVTRAVLGDDPQLMKVALQDLQTNSKIGALLPYFVYVVSGVKSVSHDLEQLHRLLQVARSLFRNPHLCLGPYVRCLVGSVLYCVLEPLAASINPLNDHWTLRDGAALLLSHIFWTHGDLVSGLYQHILLSLQKILADPVRPLCCHYGAVVGLHALGWKAVERVLYPHLSTYWTNLQAVLDDYSVSNAQVKADGHKVYGAILVAVERLLKMKAQAAEPNRGGPGGRGCRRLDDLPWDSLLFQESSSGGGAEPSFGSGLPLPPGGAGPEDPSLSVTLADIYRELYAFFGDSLATRFGTGQPAPTAPRPPGDKKEPAAAPDSVRKMPQLTASAIVSPHGDESPRGSGGGGPASASGPAASESRPLPRVHRARGAPRQQGPGTGTRDVFQKSRFAPRGAPHFRFIIAGRQAGRRCRGRLFQTAFPAPYGPSPASRYVQKLPMIGRTSRPARRWALSDYSLYLPL
Does B1 bind?
Result: binds
